Our source for the fold of Cdc8 on F-actin bundles with Fim1 and Ain1 against with Fim1 alone values is article PMC6557641.

The assay concerns the target Chicken skeletal muscle actin, assembled into filaments (F-actin) (chicken) (UniProt P68139). Nature of the assay: TIRF microscopy of labeled protein on actin filaments; four-color TIRFM; 1.5 μM Mg-ATP actin (15% Alexa 488-labeled), 50 nM Fim1 (Alexa 405-labeled), 2.5 μM Cdc8 (TMR-labeled), without or with 500 nM Ain1 (Cy5-labeled); fluorescence on two-filament bundles; room temperature.

Turning to “acetylation mimic tropomyosin AlaSer-Cdc8, fluorescently labeled (TMR or Cy5) (natural protein)”, the fold of Cdc8 on F-actin bundles with Fim1 and Ain1 against with Fim1 alone is over 100 fold.
